From article PMC12840758, “The Cold Shock Protein CspB from Mycobacterium tuberculosis Binds to MTS0997 sRNA and MTS1338 sRNA as a Dimer” (International Journal of Molecular Sciences, 2026)

Molecular target: the molecule itself
Test: SEC; Superdex 75 Increase 10/300 GL, 200 mM NaCl, 50 mM Tris-HCl pH 8.0; 1 mg/mL, 100 uL injected, 0.5 mL/min; calibrated with monomeric globular proteins of 45.8, 24.8, 15.4 and 7.3 kDa

B1: Cold shock protein CspB from Mycobacterium tuberculosis (natural protein)
chain: MPTGKVKWYDPDKGFGFLSQEGGEDVYVRSSALPTGVEALKAGQRVEFGIASGRRGPQALSLRLIEPPPSLSRPRREPAAEHKHSPDELHGMVEDMITLLESTVQPELRKGRYPDRKTARRVAEVVRAVAREFES
notes: Removal of the C-terminal His6 tag is not mentioned; also called MtbCspB; M. tuberculosis CspB
stoichiometry N: 2
